Here are results for three molecules from EP4692123A1, “ANTI-BCAM ANTIBODY AND ANTIBODY-DRUG CONJUGATE” (priority 2023, dated 2024).

For experiment [1], the target named is T1, human BCAM antigen protein expressed on the cell surface (human, UniProt P50895 32-628).
T1 construct: whole, on cells; also called human BCAM expressed on the cell surface; BCAM on HEK293FT cells transfected with the 293FT/BCAM plasmid
T1 sequence (looked up): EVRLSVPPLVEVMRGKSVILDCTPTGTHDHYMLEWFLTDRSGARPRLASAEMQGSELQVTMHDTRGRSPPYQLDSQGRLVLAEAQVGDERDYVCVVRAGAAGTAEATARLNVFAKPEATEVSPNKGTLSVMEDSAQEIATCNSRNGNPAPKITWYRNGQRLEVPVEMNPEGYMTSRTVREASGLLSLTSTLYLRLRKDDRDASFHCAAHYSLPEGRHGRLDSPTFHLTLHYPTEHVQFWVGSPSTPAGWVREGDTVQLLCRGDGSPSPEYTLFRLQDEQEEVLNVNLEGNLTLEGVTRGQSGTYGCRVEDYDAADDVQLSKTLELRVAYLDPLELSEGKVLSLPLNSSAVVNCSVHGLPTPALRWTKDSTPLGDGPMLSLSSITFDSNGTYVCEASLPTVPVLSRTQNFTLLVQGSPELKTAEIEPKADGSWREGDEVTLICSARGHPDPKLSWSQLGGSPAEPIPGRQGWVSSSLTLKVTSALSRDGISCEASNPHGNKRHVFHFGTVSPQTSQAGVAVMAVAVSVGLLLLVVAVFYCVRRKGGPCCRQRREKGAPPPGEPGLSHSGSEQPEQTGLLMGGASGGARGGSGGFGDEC
In words: flow cytometry on HEK293FT cells transfected with human BCAM. A general note: Flow cytometry measures light scatter and fluorescence of single cells or particles in a stream.

Experiment [2] has as its target T2, human BCAM protein (10238-H08H, SinoBiological, China) (human, UniProt P50895 32-547).
T2 construct: Bought recombinant protein; also called antigen protein; Lu
T2 sequence (looked up): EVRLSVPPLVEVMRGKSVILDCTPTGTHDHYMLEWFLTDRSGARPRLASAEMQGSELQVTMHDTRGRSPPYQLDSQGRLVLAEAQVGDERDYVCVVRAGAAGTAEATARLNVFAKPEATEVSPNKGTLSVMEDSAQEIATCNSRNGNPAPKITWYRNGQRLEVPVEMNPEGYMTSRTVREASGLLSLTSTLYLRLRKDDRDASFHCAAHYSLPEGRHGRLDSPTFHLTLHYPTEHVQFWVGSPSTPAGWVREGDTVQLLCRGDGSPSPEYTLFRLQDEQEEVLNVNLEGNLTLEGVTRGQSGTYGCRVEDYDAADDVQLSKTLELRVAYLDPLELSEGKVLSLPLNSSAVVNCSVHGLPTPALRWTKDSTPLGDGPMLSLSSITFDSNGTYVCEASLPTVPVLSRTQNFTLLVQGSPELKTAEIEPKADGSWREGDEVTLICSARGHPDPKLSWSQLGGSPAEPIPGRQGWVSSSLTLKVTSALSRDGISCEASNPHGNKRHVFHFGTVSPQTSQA
Description: BLI (Octet R8), human BCAM amine-coupled on AR2G biosensors, antibody in solution, 1:1 model. (In BLI a coated tip is dipped into the sample, and binding shifts an interference pattern.)

The target in experiment [3] is T2, human BCAM protein (10238-H08H, …). In words: ELISA, plate coated with human BCAM, anti-human IgG Fc-HRP detection. On the technique in general: ELISA stands for enzyme-linked immunosorbent assay.
The subject of experiment [4] is SK-BR-3. Description: In vitro anticancer effect, CellTiter-Glo cell viability. Conditions: SK-BR-3, 72 hours. It is filed as cell-based, human. The procedure: (§1) An in vitro experiment was conducted to confirm the anticancer effect of the Ab-II antibody-drug conjugate produced in Example 4 on human cell lines that express high levels of BCAM.
(§2) 5 x 10^3 cells of SK-BR-3 (human breast cancer cell line, KCLB), OVCAR3 (human ovarian cancer cell line, KCLB), and DU145 (human prostate cancer cell line, KCLB) were seeded into a 96-well plate (3595, Corning, USA). The next day, after confirming cell attachment to the plate, the existing cell culture was removed. Ab-II, produced in Example 4, was serially diluted in cell culture medium from 1 µM in a 5-fold dilution series across 8 points (down to 12.8 pM), and 200 µL was added to each well. On the day of drug treatment, the luminescence of the negative control (0% control, untreated with the drug) was measured. The culture medium was removed, 100 µL of CellTiter-Glo® (Promega, USA) solution was added to each well, and after reacting for 10 minutes at room temperature, the luminescence was measured with a microplate reader (Synergy H1, Biotek, USA). The experimental group treated with the drug and the positive control group (100% control, untreated with the drug) were reacted for 72 hours in a 37°C CO2 incubator. Afterward, the culture medium was removed, 100 µL of CellTiter-Glo® solution was added to each well, and after reacting for 10 minutes at room temperature, the luminescence was measured with the microplate reader. The % cell viability for Ab-II was calculated by substituting into the formula: [(Ab-II treated group) - (0% control group)] / [(100% control group) - (0% control group)]. The GI50 (half-maximal growth inhibition concentration) value of Ab-II for each cell line was calculated using GraphPad Prism (GraphPad software Inc., USA) based on the % cell viability.

The subject of experiment [5] is OVCAR3. The experiment is described as above. It is filed as cell-based, human. Conditions: OVCAR3, 72 hours. How it is done:
as §1, §2

The subject of experiment [6] is DU145. The description is as above. The class given is cell-based, human. To be noted: DU145, 72 hours. The procedure: as §1, §2
For experiment [7], the target named is T2, human BCAM protein (10238-H08H, …). Description: ELISA, plate coated with 7 nM human BCAM, anti-human IgG Fc-HRP detection.

Values joined by “and” are separate entries in the source; they are usually repeats but may differ in a detail not shown here. Equal entries are not always repeated.

As a reminder, the EC50 is the midpoint of the concentration-response curve. Read a high EC50 as weaker potency. As a reminder, the Kd is the equilibrium constant for the complex coming apart. A lower Kd goes with tighter binding. As usually defined, the koff is a measure of how fast the partners let go of each other. Read a high koff as fast dissociation. As usually defined, the kon is a measure of how fast the partners come together. Lower therefore signals slow association. Usually GI50 stands for the concentration that inhibits growth by half.

B1: Ab-I antibody (anti-BCAM human IgG4 antibody) (antibody, V domains shown)
VH: EVQLVESGGGLVKPGGSLRLSCAASGFTFSSYSMNWVRQAPGKGLEWVSSISSSSSYIYYADSVKGRFTISRDNAKNSLYLQMNSLRAEDTAVYYCARIIGGWLGDYWGQGTLVTVSS
VL: NIQMTQSPSSVSASVGDRVTITCRASQGISSWLAWYQQKPGKAPKLLIYAASSLRSGVPSRFSGSGSGTDFTLTISSLQPEDFATYYCQQANSFPPPTFGGGTKVEIK
notes: From a human scFv phage library, expressed in ExpiCHO-S
As for B1, the EC50 in experiment [1] is 0.594 nM and 0.086 µg/mL. In experiment [2], the equilibrium dissociation constant (Kd) came out at 0.991 nM, the off-rate (koff) was 0.00216 s⁻¹ and the on-rate (kon) amounted to 2.18e+06 M⁻¹ s⁻¹. In addition, it took 0.124 nM to reach a half-maximal effect in experiment [3] (EC50).

B2: Ab-II (conjugate)
VH: B1 VH
VL: B1 VL
For the molecule B2, the results for the GI50 in experiment [4], in experiment [5] and in experiment [6] were 0.21 nM, 0.35 nM and 17 nM, respectively.

B3: Ab-II antibody-drug conjugate (antibody, DAR 5.3, V domains shown)
VH: B1 VH
VL: B1 VL
modifications: Compound 1 conjugated through its maleimide group to antibody cysteine side chains after partial reduction of the disulfide bonds; positions not given; DAR 5.3
notes: Calculated DAR 5.3; also called anti-BCAM antibody-drug conjugate Ab-II
Regarding B3, in experiment [7], the EC50 came out at 0.269 nM.
